From patent US20030105292A1

What was measured:
G protein Gi [1] = target: G protein Gi
Gs protein [2] = target: Gs protein
G protein Gi [3] = target: G protein Gi; remark: listed apart in the source
Gs protein [4] = target: Gs protein; remark: listed apart in the source

With endogenous human GPR30 (receptor) the luciferase, CRE-Luc reporter in 293 cells co-transfected with GPR6 at a 1:4 ratio (relative light units) (G protein Gi [1]) was 104.

“endogenous, constitutively activated GPR6 (from UniProt P46095) (receptor)” showed a luciferase, CRE-Luc reporter in 293 cells (relative light units) (Gs protein [2]) of 104.

Work on “non-endogenous human ETBR-LP2 (N358K) (receptor)” yielded a luciferase, AP1 reporter assay in 293T cells; Per-Cent Difference of the non-endogenous against the endogenous GPCR (G protein Gq) of 61.1% and a luciferase, AP1 reporter assay in 293 cells; Per-Cent Difference of the non-endogenous against the endogenous GPCR (G protein Gq) of 48.4%.

With “non-endogenous, constitutively activated GPR17 (V234K) (receptor)” the luciferase, 8xCRE-Luc reporter in 293 cells co-transfected with GPR3; Per-Cent Difference of the non-endogenous against the endogenous GPCR (G protein Gi [3]) was 74.5%.

“non-endogenous, constitutively active GPR30 (L258K) (receptor)” showed a luciferase, CRE-Luc reporter in 293 cells co-transfected with GPR6; Per-Cent Difference of the non-endogenous against the endogenous GPCR (G protein Gi [3]) of 71.6%.

B1: non-endogenous human APJ (L247K) (receptor)
chain: MEEGGDFDNYYGADNQSECEYTDWKSSGALIPAIYMLVFLLGTTGNGLVLWTVFRSSREKRRSADIFIASLAVADLTFVVTLPLWATYTYRDYDWPFGTFFCKLSSYLIFVNMYASVFCLTGLSFDRYLAIVRPVANARLRLRVSGAVATAVLWVLAALLAMPVMVLRTTGDLENTTKVQCYMDYSMVATVSSEWAWEVGLGVSSTTVGFVVPFTIMLTCYFFIAQTIAGHFRKERIEGLRKRRRLKSIIVVLVVTFALCWMPYHLVKTLYMLGSLLHWPCDFDLFLMNIFPYCTCISYVNSCLNPFLYAFFDPRFRQACTSMLCCGQSRCAGTSHSSSGEKSASYSSGHSQGPGPNMGKGGEQMHEKSIPYSQETLVVD
In the case of B1, the [35S]GTPgammaS binding to membranes expressing the receptor; Per-Cent Difference of the non-endogenous against the endogenous GPCR (G protein) is reported as 49%.

B2: non-endogenous human GHSR (V262K) (receptor)
chain: MWNATPSEEPGFNLTLADLDWDASPGNDSLGDELLQLFPAPLLAGVTATCVALFVVGIAGNLLTMLVVSRFRELRTTTNLYLSSMAFSDLLIFLCMPLDLVRLWQYRPWNFGDLLCKLFQFVSESCTYATVLTITALSVERYFAICFPLRAKVVVTKGRVKLVIFVIWAVAFCSAGPIFVLVGVEHENGTDPWDTNECRPTEFAVRSGLLTVMVWVSSIFFFLPVFCLTVLYSLIGRKLWRRRRGDAVVGASLRDQNHKQTKKMLAVVVFAFILCWLPFHVGRYLFSKSFEPGSLEIAQISQYCNLVSFVLFYLSAAINPILYNIMSKKYRVAVFRLLGFEPFSQRKLSTLKDESSRAWTESSINT
B2 gave a luciferase, CREB reporter assay in 293T cells; Per-Cent Difference of the non-endogenous against the endogenous GPCR (Gs protein [4]) of 35.6% and a luciferase, CREB reporter assay in 293 cells; Per-Cent Difference of the non-endogenous against the endogenous GPCR (Gs protein [4]) of 58.9%.
